According to publication PMC2796330 (Molecular cell, 2009):
Where no end group is shown, it is not given here. [ ]: non-standard residue; d: D form. pT = C[C@@H](OP(=O)(O)O)[C@H](N)C(=O)O

Tests used:
[1] = target: recombinant Nedd4L WW2 domain; assay: ITC
[2] = target: Smurf1 WW2 domain; assay: ITC
Smurf1 WW2 domain, sequence (Q9HCE7 whole entry, the tested form may be a part): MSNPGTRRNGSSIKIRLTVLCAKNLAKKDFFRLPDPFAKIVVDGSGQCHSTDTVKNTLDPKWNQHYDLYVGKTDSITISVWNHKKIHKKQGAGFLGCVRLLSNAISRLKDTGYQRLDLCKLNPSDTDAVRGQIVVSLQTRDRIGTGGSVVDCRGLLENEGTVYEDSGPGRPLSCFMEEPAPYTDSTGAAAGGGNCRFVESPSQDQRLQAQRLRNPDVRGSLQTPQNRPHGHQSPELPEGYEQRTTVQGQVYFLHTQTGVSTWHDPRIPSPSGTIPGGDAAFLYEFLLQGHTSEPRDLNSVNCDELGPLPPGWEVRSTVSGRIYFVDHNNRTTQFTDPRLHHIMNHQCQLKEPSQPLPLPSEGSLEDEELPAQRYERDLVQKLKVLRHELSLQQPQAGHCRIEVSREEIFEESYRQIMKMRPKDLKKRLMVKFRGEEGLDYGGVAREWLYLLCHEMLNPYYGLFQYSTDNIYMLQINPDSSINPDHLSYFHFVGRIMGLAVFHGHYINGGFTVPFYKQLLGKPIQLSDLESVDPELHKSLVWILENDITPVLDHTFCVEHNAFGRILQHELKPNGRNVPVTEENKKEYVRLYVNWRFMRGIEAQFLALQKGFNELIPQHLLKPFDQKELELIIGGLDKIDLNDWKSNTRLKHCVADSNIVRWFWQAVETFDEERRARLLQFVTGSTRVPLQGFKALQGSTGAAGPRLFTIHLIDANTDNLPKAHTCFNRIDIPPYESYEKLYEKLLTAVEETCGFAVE

recombinant Nedd4L WW2 domain, sequence (Q96PU5 whole entry, the tested form may be a part): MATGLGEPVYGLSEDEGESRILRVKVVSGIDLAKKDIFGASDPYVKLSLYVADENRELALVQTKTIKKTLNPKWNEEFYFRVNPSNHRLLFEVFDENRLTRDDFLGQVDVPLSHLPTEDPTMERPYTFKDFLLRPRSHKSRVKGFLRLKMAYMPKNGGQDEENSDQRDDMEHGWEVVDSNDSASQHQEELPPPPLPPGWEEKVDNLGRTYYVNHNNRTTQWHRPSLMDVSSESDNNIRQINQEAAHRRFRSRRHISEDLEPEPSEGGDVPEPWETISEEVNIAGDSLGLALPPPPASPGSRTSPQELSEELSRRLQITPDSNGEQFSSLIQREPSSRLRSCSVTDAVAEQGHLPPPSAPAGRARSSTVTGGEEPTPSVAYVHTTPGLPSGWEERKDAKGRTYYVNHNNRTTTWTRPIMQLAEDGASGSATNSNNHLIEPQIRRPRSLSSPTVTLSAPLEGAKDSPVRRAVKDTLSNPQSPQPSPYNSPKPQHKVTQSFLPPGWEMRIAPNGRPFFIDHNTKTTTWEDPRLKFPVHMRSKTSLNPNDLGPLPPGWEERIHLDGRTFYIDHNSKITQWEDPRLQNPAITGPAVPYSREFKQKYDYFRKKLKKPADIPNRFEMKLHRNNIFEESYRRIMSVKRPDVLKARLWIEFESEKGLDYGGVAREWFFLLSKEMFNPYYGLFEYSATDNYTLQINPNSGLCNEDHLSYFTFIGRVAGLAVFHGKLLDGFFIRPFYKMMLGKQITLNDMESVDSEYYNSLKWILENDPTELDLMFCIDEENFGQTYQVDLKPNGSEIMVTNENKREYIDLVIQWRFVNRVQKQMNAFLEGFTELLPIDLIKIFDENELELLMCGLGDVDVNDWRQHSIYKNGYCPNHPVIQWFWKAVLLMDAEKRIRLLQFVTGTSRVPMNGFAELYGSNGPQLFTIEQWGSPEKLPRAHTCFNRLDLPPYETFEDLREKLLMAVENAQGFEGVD

| Kd [1] [µM] | Kd [2] [µM] | Binder |
| --- | --- | --- |
| 7.8 | – | IPE[pT]PPPGYISED [Smad2 pT-PY motif peptide (phosphothreonine)] |
| 4.1 | 36 | IPE[pT]PPPGYLSED [Smad3 pT-PY motif peptide (phosphothreonine)] |
| – | 32 | PADTPPPAYLPPE [Smad1 T-PY motif peptide] |
